Experimental data published in PMC6616571.

System: wild-type DNA polymerase beta (human)
Assay: EMSA
Details: 10 nM DNA, 5 mM MgCl2; approximately 50% of DNA bound at 32 nM enzyme; EMSA: 50 mM Tris-HCl pH 7.5, 100 mM KCl, 5 mM MgCl2, 1 mM DTT, 10% glycerol, 100 ug/ml BSA, room temperature 5 min; 10% native PAGE at 4 C

1-nt gapped 34-bp DNA
K half: 32 nM
